Assay results reported in patent publication US20230313305A1, “METHODS AND USES OF INFLAMMATORY BOWEL DISEASE BIOMARKERS” (Washington University, priority 2017, published 2023).

Tested on: latent TGFβ
Assay: Cleavage of latent TGFβ by tPA in cell free assay
Type: biochemical
Conditions: cell free assay (FIG. 22)

B1: tPA: serine protease that converts plasminogen to plasmin (protein, UniProt P00750 36-562, looked up)
Tissue-type plasminogen …: SYQVICRDEKTQMIYQQHQSWLRPVLRSNRVEYCWCNSGRAQCHSVPVKSCSEPRCFNGGTCQQALYFSDFVCQCPEGFAGKCCEIDTRATCYEDQGISYRGTWSTAESGAECTNWNSSALAQKPYSGRRPDAIRLGLGNHNYCRNPDRDSKPWCYVFKAGKYSSEFCSTPACSEGNSDCYFGNGSAYRGTHSLTESGASCLPWNSMILIGKVYTAQNPSAQALGLGKHNYCRNPDGDAKPWCHVLKNRRLTWEYCDVPSCSTCGLRQYSQPQFRIKGGLFADIASHPWQAAIFAKHRRSPGERFLCGGILISSCWILSAAHCFQERFPPHHLTVILGRTYRVVPGEEEQKFEVEKYIVHKEFDDDTYDNDIALLQLKSDSSRCAQESSVVRTVCLPPADLQLPDWTECELSGYGKHEALSPFYSERLKEAHVRLYPSSRCTSQHLLNRTVTDNMLCAGDTRSGGPQANLHDACQGDSGGPLVCLNDGRMTLVGIISWGLGCGQKDVPGVYTKVTNYLDWIRDNMRP
cleavage of latent TGFβ: can directly and indirectly cleave
